# Laboratory results reported in publication PMC7950132 (Molecular & Cellular Proteomics : MCP, 2021).
# B1: Ariadne RBR E3 ubiquitin protein ligase 2 (ARIH2) (enzyme, human, UniProt O95376 1-493, looked up)
# chain: MSVDMNSQGSDSNEEDYDPNCEEEEEEEEDDPGDIEDYYVGVASDVEQQGADAFDPEEYQFTCLTYKESEGALNEHMTSLASVLKVSHSVAKLILVNFHWQVSEILDRYKSNSAQLLVEARVQPNPSKHVPTSHPPHHCAVCMQFVRKENLLSLACQHQFCRSCWEQHCSVLVKDGVGVGVSCMAQDCPLRTPEDFVFPLLPNEELREKYRRYLFRDYVESHYQLQLCPGADCPMVIRVQEPRARRVQCNRCNEVFCFKCRQMYHAPTDCATIRKWLTKCADDSETANYISAHTKDCPKCNICIEKNGGCNHMQCSKCKHDFCWMCLGDWKTHGSEYYECSRYKENPDIVNQSQQAQAREALKKYLFYFERWENHNKSLQLEAQTYQRIHEKIQERVMNNLGTWIDWQYLQNAAKLLAKCRYTLQYTYPYAYYMESGPRKKLFEYQQAQLEAEIENLSWKVERADSYDRGDLENQMHIAEQRRRTLLKDFHDT
# notes: ARIH2, human, codon-optimised synthetic gene; also called ARIH2 RBRL; source: E. coli BL21, purified (Ni-NTA, SEC); not shown: His6, N-terminal, cleaved; MBP, N-terminal, cleaved
# Target: T1, CUL5(NEDD8) (human, UniProt Q93034 1-780; Q15843 1-76, NEDD8 attached at K724)
# T1 construct: cullin 5, human; NEDD8, human, conjugated to CUL5; Always present together with RBX2 and ELOB/C in the experiments; written alone for the pairs inside the complexes; The His tag on CUL5 served the Ni-NTA step before TEV cleavage; also called neddylated CUL5; source: E. coli BL21, coexpressed with RBX2 and ELOB/C, neddylated in mixed lysates, purified (Ni-NTA, SEC); not shown: His6, N-terminal, …
# Experiment: SEC; ARIH2 mixed with an equimolar amount of ELOB/C-CUL5(NEDD8)-RBX2 or ELOB/C-CUL5-RBX2, separated by size exclusion; fractions on SDS-PAGE
# Conditions: both partners purified
# T1 sequence (Q93034 whole entry, chain 1 of 2): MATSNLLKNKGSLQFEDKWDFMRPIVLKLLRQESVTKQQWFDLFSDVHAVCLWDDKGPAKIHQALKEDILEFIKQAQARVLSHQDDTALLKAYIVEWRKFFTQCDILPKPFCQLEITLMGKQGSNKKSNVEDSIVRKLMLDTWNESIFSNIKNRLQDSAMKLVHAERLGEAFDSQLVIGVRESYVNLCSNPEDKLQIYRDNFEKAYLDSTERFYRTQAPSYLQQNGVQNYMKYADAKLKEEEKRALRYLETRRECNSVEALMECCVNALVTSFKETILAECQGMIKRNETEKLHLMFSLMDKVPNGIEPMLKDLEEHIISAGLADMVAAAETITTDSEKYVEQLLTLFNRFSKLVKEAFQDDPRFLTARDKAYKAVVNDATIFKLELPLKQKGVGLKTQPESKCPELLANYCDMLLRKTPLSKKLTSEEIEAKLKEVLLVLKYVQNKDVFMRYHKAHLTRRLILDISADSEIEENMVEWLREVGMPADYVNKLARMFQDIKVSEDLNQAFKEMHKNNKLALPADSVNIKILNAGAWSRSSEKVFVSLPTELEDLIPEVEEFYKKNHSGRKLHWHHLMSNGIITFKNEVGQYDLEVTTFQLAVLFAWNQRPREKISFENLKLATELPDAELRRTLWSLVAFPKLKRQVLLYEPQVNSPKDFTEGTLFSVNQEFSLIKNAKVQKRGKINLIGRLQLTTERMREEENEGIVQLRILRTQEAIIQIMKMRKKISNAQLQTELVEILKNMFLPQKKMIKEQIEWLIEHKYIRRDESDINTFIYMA
# T1 sequence (Q15843 1-76, chain 2 of 2): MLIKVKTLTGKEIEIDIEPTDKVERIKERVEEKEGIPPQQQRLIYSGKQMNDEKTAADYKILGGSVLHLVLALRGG
binder,measurement,value
B1,binding result,binds
